Results on 5 molecules are retold here after paper PMC5766103 (PLoS ONE, 2018).

For series [1] the following is noted: clinical trials, moderate to severe psoriasis; ref [7]–[9]; cited from earlier work. From the text:
Augmented expression of IL-17A is linked with various autoimmune disorders. Therefore, blocking activity of IL-17A has been of great therapeutic interest. Two approved antibody based therapeutics targeting IL-17A, Secukinumab and Ixekizumab, are currently being used for treatment of moderate to severe psoriasis. […] Moreover, current advanced clinical trials have shown promising results for treatment of ankylosing spondylitis and psoriatic arthritis ...

A further series deals with T1, IL-17A (Homo sapiens, UniProt Q16552).
T1 construct: His-tag; Flag-tag; made in house; host or cells: Sf9 insect cells (baculovirus)
As to the kind of experiment: Surface plasmon resonance (BIAcore T200) binding of peptides to captured Avi-tagged IL-17A. The conditions noted are these: 8°C, 50 μl/min, 10 mM HEPES pH 7.5, 150 mM NaCl, 0.005% P20, 3% DMSO; global fit, 1:1 binding model; read-out: SPR KD1. Background: SPR reads the build-up and loss of mass on a sensor chip optically.

Series [2] concerns the molecule itself. As to the kind of experiment: crystal structure; IL-17A at 7.1 mg/ml with 2 mM peptide; crystals at 8°C in 20% PEG 3350, 200 mM lithium chloride; 1.6 Å.
Series [3] concerns the target Avi-tagged IL-17A (IL-17A molecule with a single biotin tag per dimer) (human) (UniProt Q16552). As to the kind of experiment: SPR; Avi-tagged IL-17A (6000–9000 RU) captured on a streptavidin chip; peptides flowed at 50 μl/min; 8°C; 10 mM HEPES pH 7.5, 150 mM NaCl, 0.005% P20, 3% DMSO; global fit, 1:1 binding model.
Series [4] has the same target. Description: AlphaScreen or HTRF; AlphaLISA competition: 2 nM IL-17RA-flag and 2 nM Avi-tagged IL-17A-His with peptide dilutions, 2 h at room temperature; streptavidin donor and anti-FLAG acceptor beads; 20 mM HEPES, 150 mM NaCl, 0.05% Tween-20, 0.1% HSA, pH 7, 1% DMSO; relative IC50, four parameter fit.

Regarding “Secukinumab: approved antibody based therapeutic targeting IL-17A”, the “patient population with at least 75% reduction of disease severity (PASI75)” value in series [1] is on record as 80%.

Turning to “Ixekizumab: approved antibody based therapeutic targeting IL-17A”, in series [1], the “patient population with at least 75% reduction of disease severity (PASI75)” value was 80%.

Regarding `CSCC[C@@H]1NC(=O)[C@H](CC(=O)O)NC(=O)[C@H](Cc2ccc(O)cc2)NC(=O)[C@H](CCC(=O)O)NC(=O)[C@H](CC(C)C)NC(=O)[C@H](C(C)C)NC(=O)[C@H](Cc2c[nH]c3ccccc23)NC(=O)[C@@H](N)CSSC[C@@H](C(=O)N[C@@H](CCCNC(=N)N)C(=O)O)NC(=O)[C@H](Cc2c[nH]cn2)NC(=O)[C@H](CC(C)C)NC(=O)[C@H](C)NC(=O)CNC(=O)[C@H](Cc2ccccc2)NC1=O` [18–902], the Kd on IL-17A worked out at 1.3 µM.

B1: IL-17A residues 38–155 with the mutations N68D/C129S (ligand, human, UniProt Q16552 38-155, looked up)
chain: DKNFPRTVMVNLNIHNRNTNTNPKRSSDYYDRSTSPWNLHRNEDPERYPSVIWEAKCRHLGCINADGNVDYHMNSVPIQQEILVLRREPPHSPNSFRLEKILVSVGCTCVTPIVHHVA
notes: construct numbers and the two mutations count on the precursor protein; Crystallography construct
Take B1: the binding result in series [2] is listed as “binds”.

In series [3], CLDLQYDMFGALHCV [18–913] returned a Kd of 3.87 µM, a koff of 0.0528 s⁻¹ and a kon of 13700 M⁻¹ s⁻¹. The molecule also showed an IC50 in series [4] of 1.9 µM.

The term koff denotes the rate constant with which the complex falls apart. Low values mean slow dissociation, high ones fast dissociation. The term kon denotes the second-order rate constant of association. As usually defined, the IC50 is the concentration at which inhibition is half-maximal. Read a high IC50 as lower potency.
